Entries after “also recorded” stand apart in the source; their conditions may differ.
What was measured:
KLN205 tumors = assay: KLN205 syngeneic mouse lung squamous tumor model in DBA2 mice; assay type: in vivo; conditions: for KLN205 primary tumor growth, isotype comparison: Example 15, 200 μg (10 mg/kg) i.p. from day 9
Protocol: For the tumor study. 6-8 week-old female DBA2 mice were implanted subcutaneously in the right flank with 2.5×10^5 mouse lung squamous carcinoma KLN205 cells in 50% matrigel on day 0. Mice were treated with PBS as a vehicle control, a mouse IgG isotype control (10 mg/kg), or anti-VTCN1 6D9 antibody (10 mg/kg) on days 3, 6, 10, 13, 15, 17, 20, and 22 following tumor implantation by intraperitoneal (i.p.) injection. Tumors were measured using an electronic caliper twice a week and tumor volume was calculated using the formula 0.52*length*width*width. Mouse body weight was also measured and recorded.
6-8 week-old female DBA2 mice were implanted subcutaneously in the right flank with 2.5×10^5 mouse lung squamous carcinoma cell KLN205 cells in 50% matrigel on day 0. Tumors were measured on day 7 and mice are randomized to 7 treatment groups. The average size was 50 mm^3. The treatment groups were: PBS vehicle control, mIgG2a isotype control. 6D9, anti-mouse PD1 antibody RMP1-14, 6D9+RMP1-14, anti-mouse CTLA-4 antibody 9D9, and 6D9+9D9. The mice were treated on days 8, 11, 13, 15, 18, 20, 22, and 25. All antibodies were 10 mg/kg by i.p.
To test the activity of the 6D9 and 6D9-mIgG1 antibodies, 6-8 weeks old female DBA2 mice were implanted subcutaneously in the right flank with 0.2 million KLN205 cells in PBS on day 0. Mice were randomized on day 9 into 3 treatment groups, mIgG1 control. 6D9-mIgG1, 6D9-mIgG2a. Mice were treated on days 9, 11, 15, 18, and 22 by i.p. with 200 μg antibodies (10 mg/kg). […] However.

mouse VTCN1 protein = molecular target: T1, mouse VTCN1 protein (Mus musculus, UniProt Q7TSP5); assay: Cross-reactivity with mouse VTCN1 protein (method not given); assay type: binding
T1 construct: His
T1 sequence (Q7TSP5 25-257): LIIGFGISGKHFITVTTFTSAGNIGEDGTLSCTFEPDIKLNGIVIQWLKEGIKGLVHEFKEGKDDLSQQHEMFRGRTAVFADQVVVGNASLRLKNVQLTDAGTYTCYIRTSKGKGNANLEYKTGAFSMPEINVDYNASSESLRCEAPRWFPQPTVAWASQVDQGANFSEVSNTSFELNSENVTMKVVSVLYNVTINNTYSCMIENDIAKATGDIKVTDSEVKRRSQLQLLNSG

4T1 tumors = assay: 4T1 mouse triple negative breast cancer model in Balb/C mice; assay type: in vivo; conditions: 6D9 10 mg/kg, gemcitabine 75 mg/kg, i.p., days 5, 8, 12, 14, 16
Protocol: 6-8 week-old Balb/C mice were injected with 0.1 million of 4T1 cells in the mammary fat pad. On day 5, mice were randomized to 4 treatment groups, PBS, 6D9 (10 mg/kg), Gemcitabine (75 mg/kg), and 6D9 (10 mg/kg) plus gemcitabine (75 mg/kg). All treatments were by intraperitoneal injection and mice received a total of 5 treatments on days 5, 8, 12, 14, and 16.
The tumors and lymph nodes were harvested from these mice, and cells were dissociated and subjected to immune cell profiling by flow cytometry analysis.

human VTCN1 protein = molecular target: T2, human VTCN1 protein (Homo sapiens, UniProt Q7Z7D3); assay: Affinity to recombinant VTCN1-his by OCTET Red (Protein A biosensors); assay type: binding; conditions: Table 5
T2 construct: His
T2 sequence (Q7Z7D3 25-282): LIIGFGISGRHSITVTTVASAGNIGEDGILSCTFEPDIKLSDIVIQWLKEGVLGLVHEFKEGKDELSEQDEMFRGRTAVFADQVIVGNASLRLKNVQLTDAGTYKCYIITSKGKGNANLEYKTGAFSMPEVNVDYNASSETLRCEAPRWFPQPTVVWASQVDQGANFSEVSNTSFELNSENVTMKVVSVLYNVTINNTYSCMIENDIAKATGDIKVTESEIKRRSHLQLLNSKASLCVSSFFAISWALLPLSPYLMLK
Protocol: The affinity of antibodies to recombinant VTCN1 was determined on an OCTET™ Red (Pall, ForteBio) instrument. After loading reagents into a 96-well plate, the OCTET™ Red with Protein A-conjugated biosensors was programmed as follows: 30 seconds for baseline #1; 45 seconds to immobilize the antibody; 30 seconds for baseline #2; 300 seconds for association of antibody to recombinant VTCN1-his; and 300 seconds for dissociation of recombinant VTCN1-his from the antibody. Table 5 lists the affinity measured for selected antibodies.

Hepa1-6 tumors = assay: Hepa 1-6 mouse hepatoma tumor model; assay type: in vivo; conditions: 10 mg/kg ip. twice a week, 7 doses, from day 8
Protocol: The same proteomics and immunohistochemistry analysis used in Example 1 and Example 12 were also used to analyze tumors harvested from mice subcutaneously injected with Hepa 1-6 mouse hepatoma cells, and these tumors were fount to express VTCN1. To test the efficacy of anti-VTCN1 antibodies in this alternate syngeneic tumor model, 6-8 week old C57BL/6 female mice were injected with 2.5 million Hepa1-6 cells in matrigel. On day 8 after tumor cell implantation, when tumors were 100-200 mm3, tumor-bearing mice were randomized to two treatment groups and received either the isotype control, mIgG2a or the anti-VTCN1 antibody 6D9. Treatment was started on day 8 with mice receiving 10 mg/kg of antibody by ip. injection. Mice were treated at this dose level and route twice a week for a total of 7 doses. Tumor volume and body weight were recorded twice a week.

B1: 6D9: mouse anti-human VTCN1 antibody; VH SEQ ID NO: 113, VL SEQ ID NO: 117; 6D9 represents 6D9-mIgG2a if not otherwise specified (antibody, V domains shown)
VH: QIQLQQSGPGLVQPSQSLSITCTVSGFSLTSYGVQWIRQSPGKGLEWLGVIWSSGSTDYNAAFLSRLSFSKDNSKSQVFFQMNSLQADDSAIYYCARDVTTIVEGFAHWGQGTLVTVSA
VL: NIVMTQSPKSMSMSVGERVTLSCKASEKVGTYVSWYQQKPEQSPKLLIYGASNRYTGVPDRFTGSGSATDFTLTISSVQVEDLADYHCGQTYSYPFTFGSGTKLEIK
notes: mouse anti-human VTCN1 antibody; 6D9 represents 6D9-mIgG2a if not otherwise specified
primary tumor growth of KLN205 tumors (KLN205 tumors; Example 13, 10 mg/kg i.p. from day 3): inhibits primary tumor growth of KLN205 tumors
mice surviving at the end of the study on day 36 (KLN205 tumors; Example 14): one mouse survived
KLN205 tumor growth, established tumors (KLN205 tumors; Example 14, 10 mg/kg i.p. from day 8): delayed tumor growth
mouse survival / time to tumor end point 1500 mm^3 (KLN205 tumors; Example 15): prolongs the median time to endpoint irrespective of isotype
KLN205 primary tumor growth, isotype comparison (KLN205 tumors): inhibits primary tumor growth
KLN205 primary tumor growth, isotype comparison (KLN205 tumors; listed as 6D9-mIgG2a): inhibit primary tumor growth
cross-reactivity with mouse VTCN1 protein (mouse VTCN1 protein): cross-reacts with mouse VTCN1 protein
4T1 tumor growth (4T1 tumors): did not show any effect in 4T1 tumor growth
Kdis (human) (human VTCN1 protein): 1.52 × 10^−3
Kon (human) (human VTCN1 protein): 6.19 × 10^5
Hepa1-6 tumor growth (Hepa1-6 tumors): inhibits primary tumor growth; also recorded: inhibits tumor growth of Hepa1-6 tumors
